Assay results from patent publication US20240124607A1 (Merck Sharp & Dohme, published 2024).

Columns and labels:
Human CEACAM5 I113T = biological target: T1, Human CEACAM5 I113T (human, UniProt P06731 35-685, limits assumed); experiment: SPR, 37C, pH 7.4
T1 sequence: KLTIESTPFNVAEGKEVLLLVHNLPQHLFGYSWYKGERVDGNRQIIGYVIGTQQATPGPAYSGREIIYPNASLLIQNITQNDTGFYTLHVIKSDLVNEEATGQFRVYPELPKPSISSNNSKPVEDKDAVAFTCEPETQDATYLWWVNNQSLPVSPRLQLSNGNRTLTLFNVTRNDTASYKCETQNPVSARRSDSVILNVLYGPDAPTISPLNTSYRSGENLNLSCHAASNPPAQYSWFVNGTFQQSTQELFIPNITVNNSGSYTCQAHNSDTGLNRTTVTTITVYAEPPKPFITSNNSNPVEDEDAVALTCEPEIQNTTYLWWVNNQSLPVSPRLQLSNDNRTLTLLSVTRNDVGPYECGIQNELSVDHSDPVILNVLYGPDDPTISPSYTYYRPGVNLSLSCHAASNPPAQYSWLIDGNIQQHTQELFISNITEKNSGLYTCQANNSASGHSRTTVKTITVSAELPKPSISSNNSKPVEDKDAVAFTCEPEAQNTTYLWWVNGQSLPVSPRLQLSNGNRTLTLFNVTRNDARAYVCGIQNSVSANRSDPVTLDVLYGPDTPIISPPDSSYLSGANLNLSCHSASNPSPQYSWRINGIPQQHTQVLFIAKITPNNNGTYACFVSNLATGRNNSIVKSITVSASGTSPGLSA

Human CEACAM5 (K398) = biological target: T2, Human CEACAM5 (K398) (human, UniProt P06731 35-685, limits assumed); experiment: SPR, 37C, pH 7.4
T2 construct: also called K398 allele
T2 sequence: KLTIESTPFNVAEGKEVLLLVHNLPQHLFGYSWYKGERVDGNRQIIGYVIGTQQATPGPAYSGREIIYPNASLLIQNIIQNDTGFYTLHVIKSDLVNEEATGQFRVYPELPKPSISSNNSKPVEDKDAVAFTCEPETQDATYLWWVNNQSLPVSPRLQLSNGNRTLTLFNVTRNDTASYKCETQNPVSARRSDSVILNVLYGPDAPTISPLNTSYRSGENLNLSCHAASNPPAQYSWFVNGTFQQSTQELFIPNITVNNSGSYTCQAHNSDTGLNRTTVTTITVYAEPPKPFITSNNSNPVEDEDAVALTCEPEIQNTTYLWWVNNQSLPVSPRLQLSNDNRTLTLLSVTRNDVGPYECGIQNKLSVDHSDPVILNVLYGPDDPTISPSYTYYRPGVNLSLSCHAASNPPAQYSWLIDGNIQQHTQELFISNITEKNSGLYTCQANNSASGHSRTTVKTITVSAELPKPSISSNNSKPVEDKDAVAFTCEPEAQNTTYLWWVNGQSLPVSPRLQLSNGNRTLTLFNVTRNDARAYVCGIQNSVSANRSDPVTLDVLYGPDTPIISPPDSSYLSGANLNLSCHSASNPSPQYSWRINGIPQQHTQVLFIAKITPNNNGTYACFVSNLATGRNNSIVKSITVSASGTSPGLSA

hCEACAM5 A2-B2 domain = biological target: T3, hCEACAM5 A2-B2 domain (human, UniProt P06731 323-500, limits assumed); experiment: SPR with hCEACAM5 domains
T3 sequence: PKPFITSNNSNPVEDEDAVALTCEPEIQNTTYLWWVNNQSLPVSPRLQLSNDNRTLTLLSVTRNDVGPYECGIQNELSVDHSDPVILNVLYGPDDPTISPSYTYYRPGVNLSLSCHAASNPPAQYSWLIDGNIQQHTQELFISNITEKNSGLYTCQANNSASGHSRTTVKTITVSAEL
Protocol: (§1) If the protein domain was an Fc fusion, AB0411, AB0466, AB0264, or AB0621 were captured using an anti-human Fab antibody (Cytiva, #28958325) immobilized onto a CM5 chip. The various hCEACAM5 protein domains (N-term, A1-B1, A2, B2, A3, or B3) were titrated over the captured TriNKETs at 50 μL/min for 180 sec of association and 300 sec of dissociation. The assay was run at 25° C. in HBS-EP+ running buffer, pH 7.4. The surface of the CM5 chip was regenerated using […] glycine pH 2.1.
(§2) The various hCEACAM5 protein domains were titrated over the captured antibody at 50 μL/min for 180 sec of association and 300 sec of dissociation. The assay was run at 37° C. in HBS-EP+ running buffer, pH 7.4. The surface of the CM5 chip was regenerated using 3M MgCl₂.

hCEACAM5 A3-B3 domain = biological target: T4, hCEACAM5 A3-B3 domain (human, UniProt P06731 501-685, limits assumed); experiment: SPR with hCEACAM5 domains
T4 sequence: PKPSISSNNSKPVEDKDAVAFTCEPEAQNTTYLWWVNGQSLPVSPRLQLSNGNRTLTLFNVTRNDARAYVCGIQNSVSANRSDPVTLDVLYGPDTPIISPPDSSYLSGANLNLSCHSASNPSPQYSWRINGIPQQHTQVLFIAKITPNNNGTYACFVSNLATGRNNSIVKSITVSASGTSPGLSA
Protocol: as §1, §2

[1] = biological target: T5, soluble mouse Fc-human NKG2D dimer (human, UniProt P26718 78-216, limits assumed); experiment: SPR, NKG2D-mFc captured, 37C, pH 6.0
T5 construct: also called NKG2D-mFc; human NKG2D fused to a mouse Fc
T5 sequence (looked up): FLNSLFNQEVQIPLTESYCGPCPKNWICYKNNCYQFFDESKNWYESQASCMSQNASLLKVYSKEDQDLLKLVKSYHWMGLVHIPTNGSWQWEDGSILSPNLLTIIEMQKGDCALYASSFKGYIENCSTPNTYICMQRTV
Protocol: (§3) Binding to NKG2D was assessed by SPR using a mouse Fc capture kit (Cytiva, #BR100838) immobilized onto a CM5 chip. Human and cynomolgus NKG2D fused to a mouse Fc were captured and AB0411, AB0466, or AB0621 was titrated from 600 nM.

Cyno NKG2D-mFc = biological target: T6, Cyno NKG2D-mFc (cynomolgus monkey, UniProt P61252 78-216, limits assumed); experiment: SPR, NKG2D-mFc captured, 37C, pH 6.0
T6 construct: also called cynomolgus NKG2D fused to a mouse Fc
T6 sequence (looked up): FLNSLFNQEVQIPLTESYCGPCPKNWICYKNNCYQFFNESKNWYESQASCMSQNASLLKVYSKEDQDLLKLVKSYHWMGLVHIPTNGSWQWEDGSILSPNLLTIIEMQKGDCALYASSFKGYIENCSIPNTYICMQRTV
Protocol: as §3

Row | Binder | Kd (Human CEACAM5 I113T) | kon (Human CEACAM5 I113T) | Kd (Human CEACAM5 (K398)) | kon (Human CEACAM5 (K398)) | binding result (hCEACAM5 A2-B2 domain) | binding result (hCEACAM5 A3-B3 domain) | Kd [1] | koff [1] | kon [1] | Kd (Cyno NKG2D-mFc) | koff (Cyno NKG2D-mFc) | kon (Cyno NKG2D-mFc)
1 | AB0466 F3' CEACAM5 TriNKET (bispecific antibody, human IgG1, kappa) not shown heavy: EVQLVESGGGLVKPGGSLRLSCAASGFTFSSYSMNWVRQAPGKGLEWVSSISSSSSYIYYADSVKGRFTISRDNAKNSLYLQMNSLRAEDTAVYYCARGAPIGAAAGWFDPWGQGTLVTVSSASTKGPSVFPLAPSSKSTSGGTAALGCLVKDYFPEPVTVSWNSGALTSGVHTFPAVLQSSGLYSLSSVVTVPSSSLGTQTYICNVNHKPSNTKVDKKVEPKSCDKTHTCPPCPAPELLGGPSVFLFPPKPKDTLMISRTPEVTCVVVDVSHEDPEVKFNWYVDGVEVHNAKTKPREEQYNSTYRVVSVLTVLHQDWLNGKEYKCKVSNKALPAPIEKTISKAKGQPREPQVCTLPPSRDELTENQVSLTCLVKGFYPSDIAVEWESNGQPENNYKTTPPVLDSDGSFFLYSWLTVDKSRWQQGNVFSCSVMHEALHNHYTQKSLSLSPG light: DIQMTQSPSSVSASVGDRVTITCRASQGISSWLAWYQQKPGKAPKLLIYAASSLQSGVPSRFSGSGSGTDFTLTISSLQPEDFATYYCQQGVSFPRTFGGGTKVEIKRTVAAPSVFIFPPSDEQLKSGTASVVCLLNNFYPREAKVQWKVDNALQSGNSQESVTEQDSKDSTYSLSSTLTLSKADYEKHKVYACEVTHQGLSSPVTKSFNRGEC | 8.4 nM | 160000 M⁻¹ s⁻¹ | 6.3 nM | 220000 M⁻¹ s⁻¹ | no binding | no binding | 480 nM | 0.12 s⁻¹ | 240000 M⁻¹ s⁻¹ | 420 nM | 0.11 s⁻¹ | 310000 M⁻¹ s⁻¹
2 | AB0621 F3' CEACAM5 TriNKET (bispecific antibody, human IgG1, kappa) DIVMTQSPDSLAVSLGERATINCKSSHSLLYGNFQNNYLAWYQQKPGQPPKLLIYWASTRESGVPDRFSGSGSGTDFTLTISSLQAEDVAVYYCQQYYSYPYTFGCGTKLEIKGGGGSGGGGSGGGGSGGGGSQVQLVQSGAEVKKPGASVKVSCKASGYTFTAYTIHWVRQAPGQCLEWMGYINPSSGYTEYNQKFKDRTTLTADTSISTAYMELSRLRSDDTAVYYCTREGGLLWFDYWGQGTLVTVSSGSDKTHTCPPCPAPELLGGPSVFLFPPKPKDTLMISRTPEVTCVVVDVSHEDPEVKFNWYVDGVEVHNAKTKPREEQYNSTYRVVSVLTVLHQDWLNGKEYKCKVSNKALPAPIEKTISKAKGQPREPRVYTLPPCRDELTKNQVSLTCLVKGFYPSDIAVEWESNGQPENNYKTTPPVLVSDGSFTLYSKLTVDKSRWQQGNVFSCSVMHEALHNHYTQKSLSLSPG heavy: EVQLVESGGGLVKPGGSLRLSCAASGFTFSSYSMNWVRQAPGKGLEWVSSISSSSSYIYYADSVKGRFTISRDNAKNSLYLQMNSLRAEDTAVYYCARGAPIGAAAGWFDPWGQGTLVTVSSASTKGPSVFPLAPSSKSTSGGTAALGCLVKDYFPEPVTVSWNSGALTSGVHTFPAVLQSSGLYSLSSVVTVPSSSLGTQTYICNVNHKPSNTKVDKKVEPKSCDKTHTCPPCPAPELLGGPSVFLFPPKPKDTLMISRTPEVTCVVVDVSHEDPEVKFNWYVDGVEVHNAKTKPREEQYNSTYRVVSVLTVLHQDWLNGKEYKCKVSNKALPAPIEKTISKAKGQPREPQVCTLPPSRDELTENQVSLTCLVKGFYPSDIAVEWESNGQPENNYKTTPPVLDSDGSFFLYSWLTVDKSRWQQGNVFSCSVMHEALHNHYTQKSLSLSPG light: DIQMTQSPSSVSASVGDRVTITCRASQGISSWLAWYQQKPGKAPKLLIYAASSLQSGVPSRFSGSGSGTDFTLTISSLQPEDFATYYCQQGVSFPRTFGGGTKVEIKRTVAAPSVFIFPPSDEQLKSGTASVVCLLNNFYPREAKVQWKVDNALQSGNSQESVTEQDSKDSTYSLSSTLTLSKADYEKHKVYACEVTHQGLSSPVTKSFNRGEC | 29 nM | 47000 M⁻¹ s⁻¹ | 19 nM | 86000 M⁻¹ s⁻¹ | no binding | no binding | 240 nM | 0.056 s⁻¹ | 240000 M⁻¹ s⁻¹ | 300 nM | 0.045 s⁻¹ | 150000 M⁻¹ s⁻¹
3 | AB0264 F3' CEACAM5 TriNKET (bispecific antibody, human IgG1, kappa) DIVMTQSPDSLAVSLGERATINCKSSHSLLYGNFQNNYLAWYQQKPGQPPKLLIYWASTRESGVPDRFSGSGSGTDFTLTISSLQAEDVAVYYCQQYYSYPYTFGCGTKLEIKGGGGSGGGGSGGGGSGGGGSQVQLVQSGAEVKKPGASVKVSCKASGYTFTAYTIHWVRQAPGQCLEWMGYINPSSGYTEYNQKFKDRTTLTADTSIPTAYMELSRLRSDDTAVYYCTREGGLLWFDYWGQGTLVTVSSGSDKTHTCPPCPAPELLGGPSVFLFPPKPKDTLMISRTPEVTCVVVDVSHEDPEVKFNWYVDGVEVHNAKTKPREEQYNSTYRVVSVLTVLHQDWLNGKEYKCKVSNKALPAPIEKTISKAKGQPREPRVYTLPPCRDELTKNQVSLTCLVKGFYPSDIAVEWESNGQPENNYKTTPPVLVSDGSFTLYSKLTVDKSRWQQGNVFSCSVMHEALHNHYTQKSLSLSPG heavy: EVQLVESGGGLVKPGGSLRLSCAASGFTFSSYSMNWVRQAPGKGLEWVSSISSSSSYIYYADSVKGRFTISRDNAKNSLYLQMNSLRAEDTAVYYCARGAPIGAAAGWFDPWGQGTLVTVSSASTKGPSVFPLAPSSKSTSGGTAALGCLVKDYFPEPVTVSWNSGALTSGVHTFPAVLQSSGLYSLSSVVTVPSSSLGTQTYICNVNHKPSNTKVDKKVEPKSCDKTHTCPPCPAPELLGGPSVFLFPPKPKDTLMISRTPEVTCVVVDVSHEDPEVKFNWYVDGVEVHNAKTKPREEQYNSTYRVVSVLTVLHQDWLNGKEYKCKVSNKALPAPIEKTISKAKGQPREPQVCTLPPSRDELTENQVSLTCLVKGFYPSDIAVEWESNGQPENNYKTTPPVLDSDGSFFLYSWLTVDKSRWQQGNVFSCSVMHEALHNHYTQKSLSLSPG light: DIQMTQSPSSVSASVGDRVTITCRASQGISSWLAWYQQKPGKAPKLLIYAASSLQSGVPSRFSGSGSGTDFTLTISSLQPEDFATYYCQQGVSFPRTFGGGTKVEIKRTVAAPSVFIFPPSDEQLKSGTASVVCLLNNFYPREAKVQWKVDNALQSGNSQESVTEQDSKDSTYSLSSTLTLSKADYEKHKVYACEVTHQGLSSPVTKSFNRGEC |  |  |  |  | no binding | no binding |  |  |  |  |  | 
